Source: patent US20150166647A1 (VLST, published 2015)

Key:
[1] = target: T1, mouse RANTES/CCL5 (mouse, UniProt P30882 24-91); assay: MSD electrochemiluminescence, chemokine coated at 1 µg/mL
T1 construct: also called muRANTES

[2] = target: T2, mouse MIP-1α/CCL3 (mouse, UniProt P10855 24-92); assay: as above
T2 construct: also called muMIP-1α
T2 sequence: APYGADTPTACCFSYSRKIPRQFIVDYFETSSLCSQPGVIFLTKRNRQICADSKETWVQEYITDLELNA

[3] = target: T3, mouse MIP-1β/CCL4 (mouse, UniProt P14097 24-92); assay: as above
T3 construct: also called muMIP-1β
T3 sequence: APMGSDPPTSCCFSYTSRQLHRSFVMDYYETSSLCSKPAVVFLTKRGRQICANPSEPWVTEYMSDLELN

[4] = target: T4, MCP-3; assay: MSD electrochemiluminescence assay; chemokine coated at 1 µg/mL, 18P7E as unquantitated hybridoma supernatant; background = BSA
T4 construct: also called MCP-3/CCL7; CCL7

[5] = target: T5, SDF; assay: as above
T5 construct: also called SDF-1/CXCL12; CXCL12

[6] = target: T6, MCP-2; assay: as above
T6 construct: also called MCP-2/CCL8; CCL8
T6 chemokine: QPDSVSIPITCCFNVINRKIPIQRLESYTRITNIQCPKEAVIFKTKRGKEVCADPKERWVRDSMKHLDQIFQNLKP

[7] = target: T7, human HCC-1/CCL14/CCL14a (human, UniProt Q16627 28-93); assay: as above
T7 sequence: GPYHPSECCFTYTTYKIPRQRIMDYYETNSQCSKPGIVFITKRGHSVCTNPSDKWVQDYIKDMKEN

[8] = target: T8, MDC; assay: as above
T8 construct: also called MDC/CCL22; CCL22
T8 chemokine: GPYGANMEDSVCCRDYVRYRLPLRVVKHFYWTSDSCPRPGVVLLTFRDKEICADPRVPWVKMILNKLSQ

[9] = target: T9, human MPIF-1/CCL23 (human, UniProt P55773 46-120); assay: as above
T9 sequence: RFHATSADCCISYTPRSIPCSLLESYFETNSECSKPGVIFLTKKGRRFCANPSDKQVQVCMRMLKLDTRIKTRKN

[10] = target: T10, IL-8; assay: as above
T10 construct: also called IL-8/CXCL8; CXCL8

[11] = target: T11, Eotaxin; assay: as above
T11 construct: also called Eotaxin/CCL11; CCL11

[12] = target: T12, ELC; assay: as above
T12 construct: also called ELC/MIP-3β/CCL19; CCL19
T12 chemokine: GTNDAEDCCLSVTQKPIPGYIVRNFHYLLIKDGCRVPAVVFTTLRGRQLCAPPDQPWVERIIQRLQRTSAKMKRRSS

[13] = target: T13, human MCP-1/CCL2 (human, UniProt P13500 24-99); assay: as above
T13 construct: also called Biotin-MCP1

[14] = target: T14, human HCC-2/MIP-1δ/CCL15 (human, UniProt Q16663 46-113); assay: as above
T14 sequence: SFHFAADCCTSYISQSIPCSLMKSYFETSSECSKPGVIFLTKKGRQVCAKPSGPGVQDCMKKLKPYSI

[15] = target: T15, MCP-4; assay: as above
T15 construct: also called MCP-4/CCL13; CCL13

[16] = target: T16, Fractalkine; assay: as above
T16 construct: also called Fractalkine/CX3CL1; CX3CL1
T16 chemokine: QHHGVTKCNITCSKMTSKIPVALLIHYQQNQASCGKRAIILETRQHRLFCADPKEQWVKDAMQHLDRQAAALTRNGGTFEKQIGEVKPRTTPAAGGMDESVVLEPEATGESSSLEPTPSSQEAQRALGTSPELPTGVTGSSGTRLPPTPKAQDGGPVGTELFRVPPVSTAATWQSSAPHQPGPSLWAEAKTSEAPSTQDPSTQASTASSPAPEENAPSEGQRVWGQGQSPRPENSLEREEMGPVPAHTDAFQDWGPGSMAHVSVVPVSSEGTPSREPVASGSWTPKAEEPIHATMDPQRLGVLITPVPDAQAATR

[17] = target: T17, HCC-4; assay: as above
T17 construct: also called HCC-4/CCL16; CCL16
T17 chemokine: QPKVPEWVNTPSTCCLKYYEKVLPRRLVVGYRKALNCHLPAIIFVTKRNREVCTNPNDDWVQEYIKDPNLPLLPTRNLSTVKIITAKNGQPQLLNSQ

[18] = target: T18, human PARC/CCL18 (human, UniProt P55774 21-89); assay: as above
T18 sequence: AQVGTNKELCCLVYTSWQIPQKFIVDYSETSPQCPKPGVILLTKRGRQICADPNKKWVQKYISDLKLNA

[19] = target: T19, I-309; assay: as above
T19 construct: also called I-309/CCL1; CCL1
T19 chemokine: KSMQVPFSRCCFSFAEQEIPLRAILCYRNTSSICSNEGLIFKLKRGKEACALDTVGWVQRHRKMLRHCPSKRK

T1 sequence (P30882 24-91 limits assumed): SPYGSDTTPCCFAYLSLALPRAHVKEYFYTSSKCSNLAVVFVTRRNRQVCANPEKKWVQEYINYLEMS
T13 sequence (P13500 24-99 limits assumed): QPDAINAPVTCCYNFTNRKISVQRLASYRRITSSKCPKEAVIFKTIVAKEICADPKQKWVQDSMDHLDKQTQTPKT
T4 sequence (chemokine, as listed by the source): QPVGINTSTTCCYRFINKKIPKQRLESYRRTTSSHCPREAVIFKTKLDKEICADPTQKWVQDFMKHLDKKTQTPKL
T11 sequence (chemokine, as listed by the source): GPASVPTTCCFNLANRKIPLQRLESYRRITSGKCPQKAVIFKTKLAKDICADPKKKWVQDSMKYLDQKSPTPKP
T10 sequence (chemokine, as listed by the source): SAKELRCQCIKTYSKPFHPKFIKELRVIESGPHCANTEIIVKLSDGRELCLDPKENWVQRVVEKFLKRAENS
T15 sequence (chemokine, as listed by the source): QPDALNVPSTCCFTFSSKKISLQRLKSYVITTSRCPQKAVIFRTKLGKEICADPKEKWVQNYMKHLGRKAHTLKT
T5 sequence (chemokine, as listed by the source): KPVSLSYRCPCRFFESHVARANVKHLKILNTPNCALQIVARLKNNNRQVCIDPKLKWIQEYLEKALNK

B1: monoclonal antibody 18P7E (antibody, V domains shown)
VH: QVQLKESGPGLVAPSQSLSITCTVSGFSLTGYGIHWVRQPPGKGLEWLGVIWPGGGTNYNSALMSRLNISKDNSKSQVFLKMNSLQTDDTAMYYCARGPLITTEVSMDYWGQGTSVTVSS
VL: QAVVTQESALTTSPGETVTLTCRSNTGAVTTSNYANWVQEKPDHLFTGLIGGTNNRAPGVPARFSGSLIGDKAALTITGAQTEDEAIYFCALWYSNHWVFGGGTKLTVLG
notes: also called MAb 18P7E
B1: no binding (tested: unquantitated hybridoma supernatant) [1]; no binding (tested: unquantitated hybridoma supernatant) [2]; no binding (tested: unquantitated hybridoma supernatant) [3]. B1: no binding (tested: unquantitated hybridoma supernatant) [4]; no binding (tested: unquantitated hybridoma supernatant) [5]; no binding (tested: unquantitated hybridoma supernatant) [6]. B1: no binding (tested: unquantitated hybridoma supernatant) [7]; no binding (tested: unquantitated hybridoma supernatant) [8]; no binding (tested: unquantitated hybridoma supernatant) [9]. B1: no binding (tested: unquantitated hybridoma supernatant) [10]; no binding (tested: unquantitated hybridoma supernatant) [11]; no binding (tested: unquantitated hybridoma supernatant) [12]. B1: no binding (tested: unquantitated hybridoma supernatant) [13]; no binding (tested: unquantitated hybridoma supernatant) [14]; no binding (tested: unquantitated hybridoma supernatant) [15]. B1: no binding (tested: unquantitated hybridoma supernatant) [16]; no binding (tested: unquantitated hybridoma supernatant) [17]; no binding (tested: unquantitated hybridoma supernatant) [18]. B1: no binding (tested: unquantitated hybridoma supernatant) [19].
